This note sets out measurements from patent US9835616B2, “In vitro method for assessing cytokine storm responses” (IMPERIAL INNOVATIONS LTD., priority 2013, dated 2017).

What all share (format): cell-based, human
Series [1] has as its system same donor BOEC: PBMC co-culture. Kind of series: MSD 9-plex pro-inflammatory cytokine array on matched BOEC:PBMC co-cultures. Conditions: 10 μg/ml, 24 h, FIG. 5. The method, then: FIG. 5A-C Cytokine release data from MSD analysis. Measurements were carried out using an MSD 10-spot 9-plex Pro-Inflammatory Assay (see methods). Data are mean±SEM (n=5 from matched 5 donors). Statistical testing was carried out between 5 donors by one-way ANOVA followed by Dunnett's multiple comparison test comparing responses with drug to respective control only (*p<0.05).
Plates were then incubated for 24 h.
To further analyse the cytokines released by matched BOEC and PBMC co-cultures as well as respective monocultures following stimulation with biologics an MSD (Meso Scale Discovery, USA) platform analysis was used. Human pro-inflammatory 9-Plex MULTISPOT 96-well-10 spot MSD plates were purchased from MSD (Gaithersburg, Md.) (Cat no. N05007A-1). Samples were diluted 1:10 in Lonza-EGM2 10% FBS/RPMI mix and added to the MSD plate. The immunoassay was carried out according to manufacturer's instructions. Plates were read using an MSC Sector Imager 2400 and analysed using MSD Discovery® Workbench software. Cytokines analysed were IL-2, CXCL8 (IL-8), IL-12q70, IL-1β, GM-CSF, IFNγ, IL-6, IL-10 and TNFα.

In series [2] the test system is co-cultures of HUVEC and PBMC. Kind of series: HUVEC plus PBMC co-culture assay (two donors), CXCL8. Conditions: HUVEC + PBMC co-culture from two donors, 10 μg/ml, 24 h, FIG. 3A. As for the experimental part:
(§1) FIG. 3A-B HUVEC (A) and mixed donor BOEC (B) plus PBMC mono and co-culture bioassay data. PBMCs were added to HUVEC (A) or BOEC from different donors (B) after 24 h. For monocultures vehicle media was added. At the same time cultures were treated +/− vehicle, ANC28 (TGN1412-like superagonist) (10 μg/ml), Campath (10 μg/ml), Avastin (10 μg/ml) or Arzerra (10 μg/ml) for 24 h. Data are mean±SEM (A; n=3) (B; n=3). Statistical significance between treatments was determined by one-way ANOVA followed by Bonferroni's Multiple Comparison test (*p<0.05)
Supernatants were discarded from each tube.
In order to compare data from our same-donor assay with the current state-of-the-art assays^1,3,17, we ran parallel experiments using HUVECs as the detector endothelial cell model. PBMCs again released low levels of CXCL8 that was not increased by any of the biotherapetuics tested (FIG. 3A). HUVEC released relatively higher basal levels of CXCL8 that were not increased by anti-CD28 superagonist or Campath. […] The basis for these different results cannot be investigated further as HUVEC donors, unlike BOEC, cannot be easily traced and studied further. Similar results were found when PBMCs were added to BOECs from a different donor. Importantly, co-cultures of HUVEC and PBMC (from two donors) responded to TGN1412-like superagonist (ANC28) and Campath. […]

For series [3], the system named is HUVEC. Kind of series: HUVEC mono-culture, CXCL8 by ELISA. Conditions: 10 μg/ml, 24 h, FIG. 3A. As for the experimental part: as §1
Plates were incubated at 37° C., 5% CO2.
In order to compare data from our same-donor assay with the current state-of-the-art assays^1,3,17, we ran parallel experiments using HUVECs as the detector endothelial cell model. PBMCs again released low levels of CXCL8 that was not increased by any of the biotherapetuics tested (FIG. 3A). HUVEC released relatively higher basal levels of CXCL8 that were not increased by anti-CD28 superagonist or Campath. […] The basis for these different results cannot be investigated further as HUVEC donors, unlike BOEC, cannot be easily traced and studied further. Similar results were found when PBMCs were added to BOECs from a different donor. Importantly, co-cultures of HUVEC and PBMC (from two donors) responded to TGN1412-like superagonist (ANC28) and Campath. This captures fully what is already know for this assay which, since the TGN1412 phase 1 trial, is as used as the gold standard assay to test biotherapeutics at the preclinical stage^1,17,18. […] This immune activation response in control or other conditions is likely due to the mixing of tissue from different donors and is a serious limitation for the HUVEC or other similar assays, but one that is totally avoided by our ‘same donor’ assay.
A general note: An ELISA detects its analyte on a solid surface through an enzyme-linked reagent.

On to alemtuzumab [Campath], for which, in series [1], the GM-CSF release entry is reported as “tendency to elevate”, the IL-6 release entry is “tendency to elevate” and the IL-8 release result was “tendency to elevate”. In series [2], the CXCL8 release entry is given as “responded”. In series [3], the CXCL8 release entry is on record as “not increased”.

As to bevacizumab [Avastin], in series [3], the CXCL8 release entry is given as “tendency to respond”.

In the case of ofatumumab [Arzerra], the CXCL8 release result in series [3] is given as “tendency to respond”.
